Experimental data taken from publication PMC9014876, “Vault RNA1–1 riboregulates the autophagic function of p62 by binding to lysine 7 and arginine 21, both of which are critical for p62 oligomerization”.

Target: MBP-p62 WT (Homo sapiens, UniProt Q13501 1-440)
Test: EMSA; 2.5 mM Mg2+; bacterial tRNA and BSA; EMSA: 20 mM HEPES pH 7.9, 100 mM KCl, 2.5 mM MgCl2, 5 mM DTT, 0.2 mM EDTA, 20% glycerol, 1 mg/mL BSA, 150 nM tRNA, room temperature; NMR: 20 mM MES pH 6.5, 100
Conditions: protein: recombinant; tags: MBP; label: 32P (internal alpha-UTP for EMSA; end-labelled for footprinting); base-paired terminal stem, central flexible loop

B1: vault RNA1-1 WT (structured_RNA)
RNA: GGCUGGCUUUAGCUCAGCGGUUACUUCGACAGUUCUUUAAUUGAAACAAGCAACCUGUCUGGGUUGUUCGAGACCCGCGGGCGCUCUCCAGUCCUUU
binding result: binds
